# B1: HDV Ribozyme (parent)
# chain: GGCCGGCAUGGUCCCAGCCUCCUCGCUGGCGCCGGCUGGGCAACAUUCCGAGGGGACCGUCCCCUCGGUAAUGGCGAAUGGGACCCA
# Variants of: B1
# Assay: self-cleavage, relative activity (ratio to wild type); higher = more cleavage; co-transcriptional
row,Variant,self-cleavage
1,GGCCGGCAUGGUCCCAGCCUCCUCGCUGGCGCCAGCUGGGCAAAAUUCCGAGGGGACCGUCCCCUCGGUAAUGGCGAAUGGGACCCA [G34A C44A],0.089
2,GGCCGGCAUGGUCCCAGCCUCCUCGCUGGCGCCAGCUGGGCAACAUUCCGAGGGGACCGUCCCCUCGGUACUGGCGAAUGGGACCCA [G34A A71C],0.0604
3,GGCCGGCAUGGUCCCAGCCUCCUCGCUGGCGCUGGCUGGGCAACAUUCCGAGGGGACCGUCCCCUCGGUAAUGGCGAAGGGGACCCA [C33U U79G],0.429
4,GGCCGGCAUGGUCCCAGCCUCCUCGCUGGCGCUGGCUGGGCAACAUUCCGAGGGGACCGUCCCCUCGGUAAUGGCGAACGGGACCCA [C33U U79C],0.325
5,GGCCGGCAUGGUCCCAGCCUCCUCGCUGGCGCCAGCUGGGCUACAUUCCGAGGGGACCGUCCCCUCGGUAAUGGCGAAUGGGACCCA [G34A A42U],0.0326
6,GGCCGGCAUGGUCCCAGCCUCCUCGCUGGCGCCAGCUGGGCGACAUUCCGAGGGGACCGUCCCCUCGGUAAUGGCGAAUGGGACCCA [G34A A42G],0.178
7,GGCCGGCAUGGUCCCAGCCUCCUCGCUGGCGCCAGCUGGGCCACAUUCCGAGGGGACCGUCCCCUCGGUAAUGGCGAAUGGGACCCA [G34A A42C],0.0354
8,GGCCGGCAUGGUCCCAGCCUCCUCGCUGGCGCCAGCUGGGCAACAUUCCGAGGGGACCGUCCCCUCGGUAAUGGCGGAUGGGACCCA [G34A A77G],0.0639
9,GGCCGGCAUGGUCCCAGCCUCCUCGCUGGCGCCAGCUGGGCAACAUUCCGAGGGGACCGUCCCCUCGGUAAUGGCGCAUGGGACCCA [G34A A77C],0.095
10,GGCCGGCAUGGUCCCAGCCUCCUCGCUGGCGCCAGCUGGGCAACAUUUCGAGGGGACCGUCCCCUCGGUAAUGGCGAAUGGGACCCA [G34A C48U],0.132
11,GGCCGGCAUGGUCCCAGCCUCCUCGCUGGCGCUGGCUGGGCAACAUUCCGAGGGGACCGUCCCCUCGGUAAGGGCGAAUGGGACCCA [C33U U72G],0.405
12,GGCCGGCAUGGUCCCAGCCUCCUCGCUGGCGCCAGUUGGGCAACAUUCCGAGGGGACCGUCCCCUCGGUAAUGGCGAAUGGGACCCA [G34A C36U],0.0623
13,GGCCGGCAUGGUCCCAGCCUCCUCGCUGGCGCUGGCUGGGCAACAUUCCGAGGGGACCGACCCCUCGGUAAUGGCGAAUGGGACCCA [C33U U60A],0.696
14,GGCCGGCAUGGUCCCAGCCUCCUCGCUGGCGCUGGCUGGGCAACAUUCCGAGGGGACCGGCCCCUCGGUAAUGGCGAAUGGGACCCA [C33U U60G],0.935
15,GGCCGGCAUGGUCCCAGCCUCCUCGCUGGCGCCAGCUGGGCAACAUUCCGAGGGGAACGUCCCCUCGGUAAUGGCGAAUGGGACCCA [G34A C57A],0.13
16,GGCCGGCAUGGUCCCAGCCUCCUCGCUGGCGCCAGCUGGGCAACAUUCCGAGGGGACCGUCCCCUCGGUAAUGGCGAAUGGGACCCU [G34A A87U],0.196

row,Variant,self-cleavage
1,GGCCGGCAUGGUCCCAGCCUCCUCGCUGGCGCCAGCUGGGCAACGUUCCGAGGGGACCGUCCCCUCGGUAAUGGCGAAUGGGACCCA [G34A A45G],0.199
2,GGCCGGCAUGGUCCCAGCCUCCUCGCUGGCGCCAGCUGGGCAACCUUCCGAGGGGACCGUCCCCUCGGUAAUGGCGAAUGGGACCCA [G34A A45C],0.299
3,GGCCGGCAUGGUCCCAGCCUCCUCGCUGGCGCCAGCUGGGCAACAUUCCGUGGGGACCGUCCCCUCGGUAAUGGCGAAUGGGACCCA [G34A A51U],0.174
4,GGCCGGCAUGGUCCCAGCCUCCUCGCUGGCGCCAGCUGGGCAACAUUCCGGGGGGACCGUCCCCUCGGUAAUGGCGAAUGGGACCCA [G34A A51G],0.0504
5,GGCCGGCAUGGUCCCAGCCUCCUCGCUGGCGCCAGCUGGGCAACAUUCCGAGGGGCCCGUCCCCUCGGUAAUGGCGAAUGGGACCCA [G34A A56C],0.151
6,GGCCGGCAUGGUCCCAGCCUCCUCGCUGGCGCCAGCUGGGCAACAUUCCGAGGGGACCGUCCCCUCGGUCAUGGCGAAUGGGACCCA [G34A A70C],0.0941
7,GGCCGGCAUGGUCCCAGCCUCCUCGCUGGCGCCAGCUGGGCAACAUUCCGAGGGGACCGUCCCCUCGGUAAUGGCGACUGGGACCCA [G34A A78C],0.157
8,GGCCGGCAUGGUCCCAGCCUCCUCGCUGGCGCCAGCUGGGCAACAUUCCGAGGGGACCGUCCCCUCGGUAAUGGCGAGUGGGACCCA [G34A A78G],0.157
9,GGCCGGCAUGGUCCCAGCCUCCUCGCUGGCGCCAGCUGGGCACCAUUCCGAGGGGACCGUCCCCUCGGUAAUGGCGAAUGGGACCCA [G34A A43C],0.119
10,GGCCGGCAUGGUCCCAGCCUCCUCGCUGGCGCCAGCUGGGCAUCAUUCCGAGGGGACCGUCCCCUCGGUAAUGGCGAAUGGGACCCA [G34A A43U],0
11,GGCCGGCAUGGUCCCAGCCUCCUCGCUGGCGCCAGCUGGGCAACAUUCCGAGGGGACCGUCCCCUCGGUAAUGGCGAAUGGGUCCCA [G34A A83U],0.0831
12,GGCCGGCAUGGUCCCAGCCUCCUCGCUGGCGCUGGCUGGGCAACAUGCCGAGGGGACCGUCCCCUCGGUAAUGGCGAAUGGGACCCA [C33U U47G],0.692
13,GGCCGGCAUGGUCCCAGCCUCCUCGCUGGCGCUGGCUGGGCAACAUUCCGAGGGGACCGUCCCCUCGGGAAUGGCGAAUGGGACCCA [C33U U69G],0.807
14,GGCCGGCAUGGUCCCAGCCUCCUCGCUGGCGCUGGCUGGGCAACAUUCCGAGGGGACCGUCCCCUCGGCAAUGGCGAAUGGGACCCA [C33U U69C],0.956
15,GGCCGGCAUGGUCCCAGCCUCCUCGCUGGCGCCAGCUGGGCAACAUUCAGAGGGGACCGUCCCCUCGGUAAUGGCGAAUGGGACCCA [G34A C49A],0.0852
16,GGCCGGCAUGGUCCCAGCCUCCUCGCUGGCGCCAGCUGGGCAACAUUCUGAGGGGACCGUCCCCUCGGUAAUGGCGAAUGGGACCCA [G34A C49U],0.3
